# From patent publication US20250074980A1 (BRIGHAM AND WOMEN S HOSPITAL, published 2025)
# T1: GST-CEACAM1 (human, UniProt P13688 35-141, limits assumed)
# T1 construct: also called human CEACAM1-GST protein
# T1 sequence: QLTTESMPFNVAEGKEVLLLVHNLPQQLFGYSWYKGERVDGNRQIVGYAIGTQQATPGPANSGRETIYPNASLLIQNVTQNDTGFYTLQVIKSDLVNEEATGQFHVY
# T2: CEACAM1 on transfected HeLa cells (human, UniProt P13688 35-526)
# T2 construct: also called HeLa-CEACAM1; HeLa C1
# T2 sequence: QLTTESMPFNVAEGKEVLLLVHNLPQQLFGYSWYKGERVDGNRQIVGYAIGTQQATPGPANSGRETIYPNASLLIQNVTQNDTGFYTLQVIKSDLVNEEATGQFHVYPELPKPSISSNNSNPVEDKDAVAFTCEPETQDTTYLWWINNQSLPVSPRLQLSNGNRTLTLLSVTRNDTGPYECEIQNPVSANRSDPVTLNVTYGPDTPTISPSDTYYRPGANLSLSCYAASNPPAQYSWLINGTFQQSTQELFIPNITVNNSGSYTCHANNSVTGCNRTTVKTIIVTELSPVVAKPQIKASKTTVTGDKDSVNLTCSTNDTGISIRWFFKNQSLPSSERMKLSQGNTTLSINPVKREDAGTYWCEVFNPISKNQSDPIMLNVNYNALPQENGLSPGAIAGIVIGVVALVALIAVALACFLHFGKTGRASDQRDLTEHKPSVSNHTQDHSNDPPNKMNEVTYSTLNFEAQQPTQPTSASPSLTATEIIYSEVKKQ
# T3: CEACAM5 on transfected HeLa cells (human, UniProt P06731 35-685)
# T3 construct: whole, on cells; also called HeLa-CEACAM5; HeLa C5
# T3 sequence (looked up): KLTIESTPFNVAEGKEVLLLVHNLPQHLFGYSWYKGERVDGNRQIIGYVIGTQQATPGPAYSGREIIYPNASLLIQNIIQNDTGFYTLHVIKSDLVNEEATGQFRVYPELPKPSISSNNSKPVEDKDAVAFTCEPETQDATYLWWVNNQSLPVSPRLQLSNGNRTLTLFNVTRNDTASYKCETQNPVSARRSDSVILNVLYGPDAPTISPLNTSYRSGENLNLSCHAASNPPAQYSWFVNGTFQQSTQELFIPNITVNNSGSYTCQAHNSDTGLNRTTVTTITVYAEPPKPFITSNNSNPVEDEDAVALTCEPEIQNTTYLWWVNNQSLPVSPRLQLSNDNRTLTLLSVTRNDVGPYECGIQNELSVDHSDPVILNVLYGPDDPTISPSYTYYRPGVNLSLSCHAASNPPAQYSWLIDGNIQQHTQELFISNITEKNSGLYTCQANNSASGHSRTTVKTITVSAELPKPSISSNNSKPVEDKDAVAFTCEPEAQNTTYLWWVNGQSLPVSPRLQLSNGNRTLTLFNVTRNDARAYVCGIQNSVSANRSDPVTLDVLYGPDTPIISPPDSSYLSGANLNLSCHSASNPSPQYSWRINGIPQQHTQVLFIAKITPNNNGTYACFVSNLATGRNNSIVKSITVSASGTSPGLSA
# T4: CEACAM6 on transfected HeLa cells (human, UniProt P40199 35-320)
# T4 construct: whole, on cells; also called HeLa-CEACAM6; HeLa C6
# T4 sequence (looked up): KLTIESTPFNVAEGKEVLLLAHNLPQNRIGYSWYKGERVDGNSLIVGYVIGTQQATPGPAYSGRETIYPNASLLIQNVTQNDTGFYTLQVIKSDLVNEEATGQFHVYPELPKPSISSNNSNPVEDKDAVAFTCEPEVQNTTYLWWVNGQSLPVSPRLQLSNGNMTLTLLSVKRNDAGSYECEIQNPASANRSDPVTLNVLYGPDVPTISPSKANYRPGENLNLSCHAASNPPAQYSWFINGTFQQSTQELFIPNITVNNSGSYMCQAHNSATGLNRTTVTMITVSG
# T5: His-tagged CEACAM1 (human, UniProt P13688 35-428)
# T5 construct: 45 kDa SPR analyte; also called CEACAM1-HIS; CEACAM1 analyte
# T5 sequence: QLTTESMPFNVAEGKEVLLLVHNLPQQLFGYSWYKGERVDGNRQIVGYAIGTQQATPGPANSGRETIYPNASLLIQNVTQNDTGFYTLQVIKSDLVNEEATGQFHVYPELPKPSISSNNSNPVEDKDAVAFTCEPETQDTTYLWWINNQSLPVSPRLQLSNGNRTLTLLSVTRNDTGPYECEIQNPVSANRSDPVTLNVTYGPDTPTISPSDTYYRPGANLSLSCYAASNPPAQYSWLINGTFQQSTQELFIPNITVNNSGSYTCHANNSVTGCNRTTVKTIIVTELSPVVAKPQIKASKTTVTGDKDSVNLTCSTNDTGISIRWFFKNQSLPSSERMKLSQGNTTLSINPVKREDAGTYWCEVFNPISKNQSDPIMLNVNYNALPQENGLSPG
# What was measured:
# GST-CEACAM1 [1] = biological target: T1, GST-CEACAM1; assay: competition ELISA vs parental murine antibody, experiment 1
# [2] = biological target: T2, CEACAM1 on transfected HeLa cells; assay: flow cytometry, transfected HeLa
# [3] = biological target: T3, CEACAM5 on transfected HeLa cells; assay: flow cytometry, transfected HeLa
# [4] = biological target: T4, CEACAM6 on transfected HeLa cells; assay: flow cytometry, transfected HeLa
# His-tagged CEACAM1 = biological target: T5, His-tagged CEACAM1; assay: SPR multi-cycle
# Procedure, shortened: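 Kon, koff, Kd and relative KD were derived from multi-cycle surface plasmon resonance sensorgrams recorded on a Biacore T200. Runs were at 25° C in HBS-P+ (pH 7.4), with purified antibody at 1 μg/ml captured to ~75 RU on a Series S Protein A chip. His-tagged CEACAM1 was passed over as analyte at 80 μl/min in 2-fold dilutions from 200 to 3.125 nM or from 100 to 1.5625 nM, with 50 or 150 seconds of association, 100 seconds of dissociation and glycine-HCl pH 1.5 for regeneration.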
# GST-CEACAM1 [5] = biological target: T1, GST-CEACAM1; assay: competition ELISA vs parental murine antibody, experiment 2
# GST-CEACAM1 [6] = biological target: T1, GST-CEACAM1; assay: competition ELISA vs parental murine antibody
# Description: The binding of the purified antibodies to human CEACAM1 was assessed in a competition ELISA assay. Nunc Immuno MaxiSorp 96 well flat bottom microtitre plates were pre-coated with 1 μg/ml of GST-CEACAM1 in 1×PBS, overnight at 4° C. The following day the plates were blocked for 1 hour at room temperature (“RT”) with 2% BSA/PBS before washing 3× with PBST pH 7.4. A 3-fold dilution series of the chimeric antibody chimeric antibody VH0/Vκ0, an irrelevant IgG4 antibody, and the humanized CEACAM1 antibodies from 100 μg/ml to 0.07 or 0.002 μg/ml were pre-mixed with a constant concentration of parental murine antibody (0.45 μg/ml final concentration), added to the plate and incubated for 1 hour at room temperature. Following 3×PBST washes, the binding of the parental murine CEACAM1 antibody was detected with an anti-mouse-HRP and TMB substrate. The reaction was stopped with 3 M HCl, absorbance read at 450 nm on a Dynex Technologies MRX TC II plate reader and the binding curves plotted. The binding of the humanized CEACAM antibody variants to CEACAM1 was compared to the chimeric antibody (VHO/Vκ0), which was included on each plate.
binder,measurement,setting,value
"VH0/Vκ0 S29A (antibody, IgG4, V domains shown, aglycosylated chimeric, IgG4 (S241P), kappa) VH: EVQLVESGGDLVKPGGSLKLACAASGFIFSSHGMSWVRQTPDKRLEWVATISSGGTYTYYPDSVKGRFTISRDNDKNTLYLQMNSLKSEDTAMYYCARHDFDYDAAWFAYWGQGTLVTVSS VL: QIVLTQSPALMSASPGVKVTMTCSANSAVSYMYWYRQKPRSSPKPWIYLTSNLASGVPARFSGSGSGTSYSLTISSMEAEDAATYYCQQWSSNPPTFGSGTKLEIK",relative IC50,GST-CEACAM1 [1],0.96
same,relative amount of cells bound,[2],77.9
same,relative amount of cells bound,[3],9.82
same,relative amount of cells bound,[4],0
same,Kd,His-tagged CEACAM1,110 nM
same,koff,His-tagged CEACAM1,0.0277 s⁻¹
same,kon,His-tagged CEACAM1,251000 M⁻¹ s⁻¹
same,relative KD,His-tagged CEACAM1,1.05
same,relative IC50,GST-CEACAM1 [5],0.72
same,average relative IC50,GST-CEACAM1 [6],0.84
